In the DeepSol protein solubility set:

Assay: soluble on expression in E. coli; label from the status in PepcDB or PDB records

Sequence | soluble on expression in E. coli
MDILLMDTIQQEVLALFREEIPGYLDSNWKEIPLELDSDLFEAPGDDLHEALDKFEKKFNVDLSQVKWSCYFPWENTPLLTRWFKLKREDVERTRKPLTIRMFSESAKAGKWLYD | not soluble
MNIEQLSQSLEHMANQAATLDRQRGEHHVPLFDERLFSCRSRLLTPCVKEAKSTLDAIIREQNENKLTALRAEYLTERLVAQIGAIQREISTTKIRKNEIKHSSHFRKPINVLYQELAQHQEWARRLREMVLEKERAVETAPSFMRAEAQKVLLATEQRLARCEAALLKLENQITHREKHQ | soluble
MTMNHDDRLRNRYEACRSGMQELDMLRAKHTLLIQNLRSRLPIIPGSLDDVQTREKKTRDVFLDRFSLQSVDSGISSQNTISSTRSSTPEDFKTSNRHSNIYENSSTTMNYSTFRKMSLESTHSSVSHSMQNDVEKTSFAPPVITSRSCHRGAWKTSPQRIRPKSMFDSTTSNTEYLFSKPPRHPIDLTKERRSAFTVLNQSSKRHSSIEPSLPSTLSQLSLNDEAKTPQKAEVIRWNKQKADAMFRANVVYVSSTEQPTKPAPLRFSPARSPPVRRALPIELKPTQHFAQPCKIRSPKLNTKTVFAAKPIAVRPSISPKVAQRSTWLQSQPL | not soluble
MKGLIIKQPYANWIVEGKKVWEIRKTPTKIRGRVIIISEKKAVGSVEIVDVLGPFTPEELANHENKHLASYDFLKRYANGKKLYAWVLANPEKYDPPIEVKIPNGAQIWVNLKGFVRR | soluble
MKRLMFIGPSQCGKTSLTQSLRGEALHYKKTQAIEWSPMAIDTPGEYLENRCLYSALLTSACEADVIALVLNADAQWSPFSPGFTAPMNRPTIGLVTKADLAEPQRISLVAEWLTQAGAQQIFITSALNNSGLDAVLDFLNSKEPLCLTKLEHHHHHH | soluble
MRIEAHQVFNVSIQLCEFFNVDLSDRGYYQIRLRPRKTAEIGSVDISHDTEGDRDTGPKTSSNILLAHVYQGAAVSKTVEVTYQHEKFNLDDWFHISVQFNSTLNLCEPQKLEIEIELLYMDRYHPPQYESFVKITKRIVEIPLDPTRLVAAARSLYFDSTYLSAITMSVFSSLVMVATRQRKANASESASSTKSTKLRRVYNSSAHALLFATRSIQQFIVNNSRLINASVSVVVLDVQTEMKAALQQFDSSDHPTRCVETDVCEWSTKITLIYQQMLILFRKSKELNQQLLLIFDKQRRAVFREAFWINERPIDKCLIRTPVSVLEHYKSIIKVDYLRKLPRCTIFCEETDCPGEFCPIIFEDVFTRNSVGLLDLNNANRQVTIPNSASMPVVKAHEKHKSFREKLRNETRKLIHPRRKSLDCSQSLSRKLDGGVTSRSRTKTLKETTSTDGGGGLLLKNIPNSQENNFSPEFPGPSRDTATESPSCSSEPIASPSPSSEFGRCSAAGELFQDDGIPLISKESVTSEEIANALRTSVSADDVLSCRVTSSTDMKLTEEHPKDRMAEFELLREREAAKKMLRQQTNYEGHLYSEQSGRSTAGPVCTPIKSSLVIGDPVVRSKNKTHLVVFVHGLEGSQEDLVPFRCGLDQAIAAHYHCIQMEGRDFDEEPWAFEYLMSSANRSQTWADITTMAHNLLSEVREYVEEARNDIQRISFLAHSLGGVIVRSAVGLAPEVEMQWMIDRCYTLMTINSPHLGLAYVQKHIHWGVQFVKWWKKSRSMEQLSFRDSVDFASSFVYKTSLNNACGKFKNILLVGTPHDQLVPYMSSLLVPSKISSEDQSQFGEAYREMMTACLSSIQNSEKSENLVRYTTFHQLGSSNTQKITGRAAHVIALEDSVFIEKLFNISAVRYFV | not soluble
MSLDNPNSSIFADLLAKASELENIIVTLQHKIQGGYYFLNDIEIISEDDARNFDVELVRLKGICNHMQRYNTKAKMRNIDWPIDVVKTAMTETRSKVFETLDLMKELDGFRDLVSYLRIALSNVNDNDLKTEIISSIDGIKEVINKGKQARDAYKLKLEALKDRYATWYMEAYLKAHISEIDHGKKSAVMLSTEKQLCDIIKNASFINPSRYDNWLRKMNLLKVVNSSVNKNAILSVPTSVDGFNPSMQKDELPELEDLKDELKEIYAEYEQGFHDALEDPTILRNKEMLTQEERSTIQQFIDGNITLNPQYARILIDIINKLQRSFTKVEINHNEMLKIFSRPMTKQQALDALAAYIDNHSRGHKPEDIRIIVKEGHHHHHH | soluble
MSLRKDLSEKVLIADGAMGTLLYSYGVDRSFEELNLSHPEDIVAIHKAYIGAGADIIQTNTYGANYIKLARYGLEDEVKRINQAAIRLAKEAARGTGTYIFGTIGGINGAVDARLPAAPLEEIKRSFREQLYCFLLDGVDAILLETYYDLDELKTVLKILRETTDLPVVANVSMHEPGILQNGKKLPDALEELIALGADVVGINCRLGPYHMARALETVPLYDNAYLAVYPNASLPEMQEGKVIYQSDTDYFEHYGEVFRQEGARIIGGCCGTTPDHIRALRKGLETTKPILEKEVRPILELVPEEVEDVDSGERLLDKVKERLTILVELDPPRTFDTTKFFEGAQALDEAGVDAITISDNSLATPRISNMALASILKHEYGIKPLIHLTTRDHNLVGMHSHVMGFHKLGLHDVLAITGDPTKVGDFPGASSVFDLRSVELVQLIKKFNDGISYTGKSLKEKARFHVGAAFNPNVLNLEKAVRLIERKVEYGADYIITQPIYDVNKAILLKEALQKANIDVPLFIGVMPLLSSRNAEFLHNEVPGIRLTDDVRERMREAEEHGHANEEGMAIARELVDAICEHFQGIYIITPFLRYDLSIELAKYAQNKQQVQIGSKEGHHHHHH | soluble
MAHHHHHHMKDVDTARVLSELVNALQRVTAQPAWNTVQEPKAITFRLEDLFSTPNSVLASAATEGDSPEHGGNASEMNSPDMAAASFVNSGVGDGLGETATPLAPLREMSDHFSSNKKYAEEGLQDVFTMLQRLIDGTYSTAGCAALACMGQEIDKMITLMRPVALIDMRAAVYMNSLCSNIAAAKESRMQLNAPLVWDFVTNTVQTYITDHPVLYTALVAISNLSYLKDLKLTREDCGVLSRLIYPVYTEVHIVEVWAAMICNLTAHHPETVQVFLELGVVEVLERLVLYFGEEGRTVIRCLQCLSNLSMGFITGHSPALAE | not soluble
MSLDLHLTNKLALITGSTKGIGKAIAIEMAREGTDVIINGRNEAEVTKVVKEIQTMFPDTHPQAGTADISIESQRATLLEKFPKVDILVNNMGIFEPMEYWDIDDATWEKFFTVNVLSGNALAKAYLPKMLAQDFGRIIFIASEEAVMPSGEMPQYSMTKTMNLSLAKSLSNLTVGTHVTVNTVMPGSTLTEGVEKMLEDMYADSDIPKEDWEKDFMKNHRSRSQIQRLIRPEEIGRFVTFVASPDSSSFSGEALRIDGGLVPTIEGHHHHHH | soluble
MTIQTVIKENAYFDSVTLMTISTRANELAGVKTAMIGMGTDMNLEVIRNVGLYTPALDHVTTGDLLIVLDLDDQANSEEILQQVDELFTKKKKTASSEVTYKTLDSALHEEPDANLVVISVNGKFAAREAHKALDQQKHVMLFSDNVTVDEELALKQKAHEKELFVMGPDCGTAIINGVGLCFANEVRSGDIGIVGASGTGSQEVSVQIHKYGYGISQLIGTGGRDLSAEIGGLMMLDGLDTLMVDEQTKAILLISKPPAPEVTEKILKKLAVSTKPVVIYFIGSEQTERKIDNVTFATSSLDAVQKVIQFSQTQEAETSLYQNPTGATLTAIQQQQAPSQKFVRGLFCGGTLCDELLYALTEVSDDVYSNIHKISERQLANPDHSQAHTLIDFGDDRFTEGRPHPMIDPTSRITRILQEAKDPEVAVLALDFELGYGSHENPVGVLAEALKEAKAIAKADGRELAIIGYVLGTEEDPQDIHEQRKILEDLEVLVVDSSHQLCEATKTFVKGANEHEQK | not soluble
MSLESSQSLELLKNKIEQYALNELSNYTEGKIQVTADNIDPRLNLKVCNDNKLEVFNPYQTPMLNTSTMGIKCLEENNHWTLYIPVKITIFKSVLVAKRALLKGTKISNSDIYQTELDVQKLKQGYFTDSKELIGLVCKHDITPNSPLNPFNIELAKLVHKGEQVSIIAAHDNLTVSMDGVAMDEGALGDSVKVKNLSSKRIIEAQVTGKKTVKVTFEGHHHHHH | soluble
FIFLALLGAAVAFPVDDDDKIVGGYTCGANTVPYQVSLNSGYHFCGGSLINSQWVVSAAHCYKSGIQVRLGEDNINVVEGNEQFISASKSIVHPSYNSNTLNNDIMLIKLKSAASLNSRVASISLPTSCASAGTQCLISGWGNTKSSGTSYPDVLKCLKAPILSDSSCKSAYPGQITSNMFCAGYLEGGKDSCQGDSGGPVVCSGKLQGIVSWGSGCAQKNKPGVYTKVCNYVSWIKQTIASN | soluble
MTKITVLSGKGGTGKTTVSVNMAKALSESYRVQLLDADVEEPNDHIFFNVDVSFEEPVHLMIPVVDNSVCIRCGECASTCQFGAISVFPSGTFVFESLCHGCGACSIMCPVNAISERPKEIGKIRFGTADGNISFGMGILNIGERTGVPVIRKLKKHIDEKADVVIVDAPPGTSCPVVESLRNTDFALLVTEPTAFGLHDLKLAVELTKEMGIPSGIVVNRYIPGNTIIEEFADEEGIPVLLKIPFKREIASLCAEGKLIVEAFQDMKKDFLELFEKIEVMVRLEHHHHHH | soluble
MAHHHHHHMTALERYAFKVDYCDPQANLVRQYLLLYFAEDSTIEMHDLKTKRVFLKRCAYPSLTPRELFIGATVGVFSRSLKLVDYGDEVTRRHFSGSEAEFVVFIQEGGLCHMGSIIDRMHTWELRITNIRLVDLPDSLCRDLGVSRRCVAILFKGSNAIEKVGGLSTEFPNMTVVVAEPSDVNSVRGAAFGPGGTTAVMKNCSVCVIKPHAIMSGYQGAIIQRLIDEGFHITALGMYSLTVADAEDFLEVYNGVVPEYQRLVEQMSSGPCWAVQVCAENSVSALRAICGPHDPDVCHVLFPHTIRSKYGVDRTRNGVHCTDLEEDAPLESEFFFSLLQNA | not soluble
MAEGGAADLDTQRSDIATLLKTSLRKGDTWYLVDSRWFKQWKKYVGFDSWDKYQMGDQNVYPGPIDNSGLLKDGDAQSLKEHLIDELDYILLPTEGWNKLVSWYTLMEGQEPIARKVVEQGMFVKHCKVEVYLTELKLCENGNMNNVVTRRFSKADTIDTIEKEIRKIFSIPDEKETRLWNKYMSNTFEPLNKPDSTIQDAGLYQGQVLVIEQKNEDGTWPRGPSTPNVKNSNYCLPSYTAYKNYDYSEPGRNNEQPGLCGLSNLGNTCFMNSAIQCLSNTPPLTEYFLNDKYQEELNFDNPLGMRGEIAKSYAELIKQMWSGKFSYVTPRAFKTQVGRFAPQFSGYQQQDCQELLAFLLDGLHEDLNRIRKKPYIQLKDADGRPDKVVAEEAWENHLKRNDSIIVDIFHGLFKSTLVCPECAKISVTFDPFCYLTLPLPMKKERTLEVYLVRMDPLTKPMQYKVVVPKIGNILDLCTALSALSGIPADKMIVTDIYNHRFHRIFAMDENLSSIMERDDIYVFEININRTEDTEHVIIPVCLREKFRHSSYTHHTGSSLFGQPFLMAVPRNNTEDKLYNLLLLRMCRYVKISTETEETEGSLHCCKDQNINGNGPNGIHEEGSPSEMETDEPDDESSQDQELPSENENSQSEDSVGGDNDSENGLCTEDTCKGQLTGHKKRLFTFQFNNLGNTDINYIKDDTRHIRFDDRQLRLDERSFLALDWDPDLKKRYFDENAAEDFEKHESVEYKPPKKPFVKLKDCIELFTTKEKLGAEDPWYCPNCKEHQQATKKLDLWSLPPVLVVHLKRFSYSRYMRDKLDTLVDFPINDLDMSEFLINPNAGPCRYNLIAVSNHYGGMGGGHYTAFAKNKDDGKWYYFDDSSVSTASEDQIVSKAAYVLFYQRQDTFSGTGFFPLDRETKGASAATGIPLESDEDSNDNDNDIENENCMHTN | soluble
PIVLFPGQQATLSPQGISSPSPFDHTAITAWLRNQLVFYDTPLAEVVDTLNRHRHGRIFITNQKLKALKVSGVFSTDEPDTALDVMINTLPIHLLRLTDYLVLI | not soluble
MGSDKIHHHHHHMGNRQRILPLGVQAPATLEGYYPCPNAAALHAVLKLVAEPQGLCLYLYGPGGVGKSHLLLGAASALAGWTPYMDCGDVPQLFNRIKDLEGFSSLVAAPLLCLDNIEVWAGQRDKETFLFDLYNERMSNGRPMLLAGRAAPRFLDWALPDWASRASACLQVALRLPDDTERMAILQEMAQRRGLQIGVEAAHYLLRHHARDPRTLDGLLTILDAGSWEHQREVTIPFIRLCLGAEKP | not soluble
